Here are results for two molecules from US20050232925A1, “Protease activity of thrombin inhibits angiogenesis” (priority 2002, published 2005).

Experiment [1] deals with 4T1 murine breast cancer cell line. Description: Primary tumor growth of transfected 4T1 cells in BALB/c mice. The format is in vivo. The conditions noted are these: stable expression in 4T1 cells, mammary pad of BALB/c mice, vs empty vector, five weeks. The text has this:
Construction of mutant uPA clones and cell transfection. We chose to pursue a genetic approach, in which we stably transfected an aggressive and highly metastatic murine breast cancer cell line (4T1) with the genes for wild type uPA, tPA and a receptor binding mutant of uPA (uPAm). We inserted the cDNA encoding murine tPA into pcDNA 3.1 (+) (Invitrogen), a CMV driven mammalian expression vector, by restriction enzyme digestion of BamHI and NheI. Wild type uPA cDNA was inserted to the pcDNA 3.1 (+) expression vector and the transfected into 4T1 cells in a similar fashion as described for the tPA cDNA. Residues 22, 27, 29 and 30 on the growth factor domain of the murine uPA molecule have been implicated in binding to mouse uPAR.
The pcDNA 3.1-tPA, pcDNA 3.1-wild type uPA, pcDNA 3.1-uPAm constructs, as well as an empty vector control were introduced into 4T1 cells by transfection using lipofectamine (Gibco-BRL) reagent. We selected 12-14 stable single clones in each group with 500 ug/mL of hygromycin. Each of the clones was evaluated for generation of the gene of interest by northern blot. The clones that had the highest generation of the genes of interest were selected. […]
Experiments using transfected tumor cells. […] Primary tumor size was measured every other day for a total of five weeks using calipers and calculated using the standard formula (width2×length×0.52). […]

A further experiment relates to HUVEC cells. Description: In vitro angiogenesis (matrigel tube formation) assay. In kind it is cell-based, human. The conditions noted are these: in the absence of plasma; rt-PA 1 μg/ml, captopril 0.1 μM. The protocol: In Vitro Angiogenesis (matrigel tube formation) Assay. Unpolymerized matrigel (7 mg/ml) was placed in the wells (100 μl/well) of a pre-chilled 48-well cell culture plate and then incubated at 37° C. for 30-45 minutes. HUVEC cells were harvested in trypsin and resuspended in EC medium (4×10^4 in 300 μl). Cells were treated with the different agents before plated onto the matrigel-coated plates. […] Microphotographs of the center of each well at low power (40×) were taken with a SPOT camera (Diagnostic Instruments Inc; Sterling Heights, Mich.) and the aid of an imaging capture software (Compix Inc Imaging Systems; Township, Pa.). The microphotographs were quantitatively analyzed (total tube length) with the Simple PCI imaging analysis software (Compix).
Matrigel tube formation assays. Samples collected from the purification process were exchanged into 1×PBS and reconstituted into 1× concentration (by volume) compared to the input tPA/captopril-treated plasma. They were tested in the matrigel tube formation assays at 10% (v/v) as follows. […] Tube formation was examined (4× magnification) through an inverted phase contrast microscope (Nikon Corporation; Tokyo, Japan) and recorded by a Spot RT camera (Diagnostic Instruments Inc; Sterling Heights, Mich.) using an automated image capture software (Compix Inc Imaging Systems; Township, Pa.).

B1: tPA: murine tPA expressed from pcDNA 3.1 in 4T1 cells (not the rt-PA drug) (protein, UniProt P11214 33-559, looked up)
Tissue-type plasminogen …: SYRATCRDEPTQTTYQQHQSWLRPMLRSSRVEYCRCNSGLVQCHSVPVRSCSEPRCFNGGTCQQALYFSDFVCQCPDGFVGKRCDIDTRATCFEEQGITYRGTWSTAESGAECINWNSSVLSLKPYNARRPNAIKLGLGNHNYCRNPDRDLKPWCYVFKAGKYTTEFCSTPACPKGKSEDCYVGKGVTYRGTHSLTTSQASCLPWNSIVLMGKSYTAWRTNSQALGLGRHNYCRNPDGDARPWCHVMKDRKLTWEYCDMSPCSTCGLRQYKRPQFRIKGGLYTDITSHPWQAAIFVKNKRSPGERFLCGGVLISSCWVLSAAHCFLERFPPNHLKVVLGRTYRVVPGEEEQTFEIEKYIVHEEFDDDTYDNDIALLQLRSQSKQCAQESSSVGTACLPDPNLQLPDWTECELSGYGKHEASSPFFSDRLKEAHVRLYPSSRCTSQHLFNKTVTNNMLCAGDTRSGGNQDLHDACQGDSGGPLVCMINKQMTLTGIISWGLGCGQKDVPGVYTKVTNYLDWIHDNMKQ
Consider B1, for which the “inhibition of primary tumor growth” value in experiment [1] is recorded as “significantly inhibit tumor cell growth”.

B2: rt-PA: rt-PA (Genentech), recombinant tissue plasminogen activator; called tPA in Example 2 (protein, UniProt P00750 36-562, looked up)
Tissue-type plasminogen …: SYQVICRDEKTQMIYQQHQSWLRPVLRSNRVEYCWCNSGRAQCHSVPVKSCSEPRCFNGGTCQQALYFSDFVCQCPEGFAGKCCEIDTRATCYEDQGISYRGTWSTAESGAECTNWNSSALAQKPYSGRRPDAIRLGLGNHNYCRNPDRDSKPWCYVFKAGKYSSEFCSTPACSEGNSDCYFGNGSAYRGTHSLTESGASCLPWNSMILIGKVYTAQNPSAQALGLGKHNYCRNPDGDAKPWCHVLKNRRLTWEYCDVPSCSTCGLRQYSQPQFRIKGGLFADIASHPWQAAIFAKHRRSPGERFLCGGILISSCWILSAAHCFQERFPPHHLTVILGRTYRVVPGEEEQKFEVEKYIVHKEFDDDTYDNDIALLQLKSDSSRCAQESSVVRTVCLPPADLQLPDWTECELSGYGKHEALSPFYSERLKEAHVRLYPSSRCTSQHLLNRTVTDNMLCAGDTRSGGPQANLHDACQGDSGGPLVCLNDGRMTLVGIISWGLGCGQKDVPGVYTKVTNYLDWIRDNMRP
modifications: alteplase
As to B2, the “inhibition of tube formation” value in the experiment with HUVEC cells is reported as “did not cause significant inhibition of tube formation”.
